We go through three sequences from patent publication US5885833.

Where only a bound is given, the exact number is not on record here.

For the data set, the target named is E2F1-DP1 heterodimer (E2F1 aa 87-1398 as printed) (Homo sapiens?) (UniProt Q01094+Q14186). Nature of the data set: EMSA.
The mark [1] stands for this setting: complex not specified individually.

Sequence of E2F1-DP1 heterodimer (E2F1 aa 87-1398 as printed) (Homo sapiens?) (Q01094 whole entry, chain 1 of 2, the tested form may be a part): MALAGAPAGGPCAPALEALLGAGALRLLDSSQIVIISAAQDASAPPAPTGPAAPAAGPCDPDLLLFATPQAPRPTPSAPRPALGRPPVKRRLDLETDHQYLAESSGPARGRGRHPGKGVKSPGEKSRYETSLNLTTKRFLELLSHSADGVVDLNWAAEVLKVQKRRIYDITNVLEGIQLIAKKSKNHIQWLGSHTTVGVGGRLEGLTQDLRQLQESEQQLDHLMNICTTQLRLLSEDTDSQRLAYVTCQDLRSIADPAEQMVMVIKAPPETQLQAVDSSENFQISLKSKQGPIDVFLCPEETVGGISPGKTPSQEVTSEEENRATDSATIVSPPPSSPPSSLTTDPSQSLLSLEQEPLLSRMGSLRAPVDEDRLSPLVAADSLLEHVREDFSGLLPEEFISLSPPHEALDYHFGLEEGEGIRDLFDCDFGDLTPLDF
Sequence of E2F1-DP1 heterodimer (E2F1 aa 87-1398 as printed) (Homo sapiens?) (Q14186 whole entry, chain 2 of 2, the tested form may be a part): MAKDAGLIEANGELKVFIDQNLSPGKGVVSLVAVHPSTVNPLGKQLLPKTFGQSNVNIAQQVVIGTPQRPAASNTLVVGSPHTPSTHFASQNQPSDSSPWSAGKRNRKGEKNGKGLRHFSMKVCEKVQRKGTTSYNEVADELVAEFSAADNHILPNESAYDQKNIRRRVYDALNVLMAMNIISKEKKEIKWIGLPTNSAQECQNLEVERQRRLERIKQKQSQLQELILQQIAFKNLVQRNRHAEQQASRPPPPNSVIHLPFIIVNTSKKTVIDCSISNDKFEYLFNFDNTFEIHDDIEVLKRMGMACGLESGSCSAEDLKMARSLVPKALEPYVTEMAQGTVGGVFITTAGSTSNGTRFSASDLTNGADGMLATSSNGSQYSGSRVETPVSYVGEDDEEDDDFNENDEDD

With “GATCCTCTCACCTGCTGCTAG (double strand) [control probe]”, the binding signal (% probe bound) under setting [1] was < 0.002.

Turning to “GATCGACTAGTTTCGCGCCCTTTCTACTAG (double strand) [E2a adenovirus promoter probe]”, the binding signal (% probe bound) (22 C, 50 mM NaCl, pH 8.0) was determined as 1.

For “GGCGCCGACGCACTTGGCTGGAGATAGGAAAGTGGTTCTGTG (double strand) [mutated B-myb probe]”, under setting [1], the binding signal (% probe bound) is < 0.01.
